# Results from patent publication US20020009752A1 (DUKE UNIVERSITY, published 2002).
# No end group written: not given here.
# B1: QBP3 phage clone (Glutamine Binding Peptide 3 displayed on M13 phage) (peptide)
# chain: HEWHWWHQEAA-pIII
# notes: Assayed as purified M13 phage displaying the 11-mer at the amino terminus of pIII; not shown: pIII (Piii) capsid protein of phage M13; the 11-mer is added to its amino terminus; assayed as whole phage
# B2: QBP5 phage clone (Glutamine Binding Peptide 5 displayed on M13 phage) (peptide)
# chain: WWRWNWATPVD-pIII
# notes: as for B1
# B3: QBP6 phage clone (Glutamine Binding Peptide 6 displayed on M13 phage) (peptide)
# chain: WHNYFHWWQDT-pIII
# notes: as for B1
# B4: QBP1 phage clone (Glutamine Binding Peptide 1 displayed on M13 phage) (peptide)
# chain: SNWKWWPGIFD-pIII
# notes: as for B1
# B5: QBP4 phage clone (Glutamine Binding Peptide 4 displayed on M13 phage) (peptide)
# chain: WGLEHFAGNKR-pIII
# notes: as for B1
# B6: QBP2 phage clone (Glutamine Binding Peptide 2 displayed on M13 phage) (peptide)
# chain: HWWRSWYSDSV-pIII
# notes: as for B1
# B7: QBP1 synthetic 11-mer peptide (glutamine binding peptide 1) (peptide)
# peptide: Ac-SNWKWWPGIFD
# Biological target: T1, polyglutamine-glutathione-S-transferase fusion protein with 62 glutamines (UniProt Q156A1 2-63)
# T1 construct: Vector construction is cited to Onodera et al. 1996; also called Q62-GST; Q62; not shown: glutathione-S-transferase (GST)
# Test: phage ELISA on immobilized Q62-GST and Q19-GST, anti-M13 antibody detection; reference Q19-GST
# Description: Individual phage libraries were screened for binding to a polyglutamine-glutathione-S-transferase fusion protein with 62 glutamines (Q₆₂-GST). […] Q₆₂-GST was immobilized on 96 well plates at a concentration of 2.5 μg/ml in 100 mM NaHCO₃ pH 8.5. The wells were then blocked with 0.1% BSA to decrease nonspecific binding. After blocking, the plates were washed with PBS-0.1% Tween-20 and phage incubated for 7 hours at room temperature. Unbound phage were removed by extensive washing with PBS containing 0.1% Tween-20. Bound phage were eluted sequentially with 50 mM glycine pH 2.0 and 100 mM ethanolamine prewarmed to 50° C. Selected phage were isolated and DNA sequenced. ELISA assays were performed to quantify bound phage using horseradish peroxidase anti-phage antibody (Pharmacia).
# T1 sequence (Q156A1 2-63): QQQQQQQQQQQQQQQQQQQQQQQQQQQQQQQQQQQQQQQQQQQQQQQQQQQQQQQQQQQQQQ
row,Binder,RATIO Q62/Q19 BINDING ELISA
1,B1,1.3 ratio (phage bound to Q62-GST divided by phage bound to Q19-GST)
2,B2,1.25 ratio (phage bound to Q62-GST divided by phage bound to Q19-GST)
3,B3,1.23 ratio (phage bound to Q62-GST divided by phage bound to Q19-GST)
4,B4,1.66 ratio (phage bound to Q62-GST divided by phage bound to Q19-GST)
5,B5,1.27 ratio (phage bound to Q62-GST divided by phage bound to Q19-GST)
6,B6,1.31 ratio (phage bound to Q62-GST divided by phage bound to Q19-GST)

# Biological target: T2, bovine serum albumin (bovine, UniProt P02769 25-607)
# T2 construct: also called BSA
# Test: phage ELISA
# T2 sequence (P02769 25-607 limits assumed): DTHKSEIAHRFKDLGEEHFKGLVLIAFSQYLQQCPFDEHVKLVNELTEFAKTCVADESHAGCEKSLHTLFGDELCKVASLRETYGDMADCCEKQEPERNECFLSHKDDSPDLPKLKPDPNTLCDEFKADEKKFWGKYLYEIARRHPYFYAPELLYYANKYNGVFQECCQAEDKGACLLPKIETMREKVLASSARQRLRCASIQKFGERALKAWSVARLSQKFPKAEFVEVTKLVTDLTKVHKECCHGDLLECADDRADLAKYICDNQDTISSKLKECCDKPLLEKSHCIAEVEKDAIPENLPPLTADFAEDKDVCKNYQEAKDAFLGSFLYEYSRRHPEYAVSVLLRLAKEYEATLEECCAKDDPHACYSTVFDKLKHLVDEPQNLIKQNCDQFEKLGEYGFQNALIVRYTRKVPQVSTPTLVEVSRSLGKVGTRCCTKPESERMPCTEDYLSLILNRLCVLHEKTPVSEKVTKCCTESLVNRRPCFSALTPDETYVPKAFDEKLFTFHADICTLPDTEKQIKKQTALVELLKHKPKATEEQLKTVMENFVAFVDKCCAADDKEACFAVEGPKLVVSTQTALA
row,Binder,binding result
1,B1,no binding
2,B2,no binding
3,B3,no binding
4,B4,no binding
5,B5,no binding
6,B6,no binding

# Biological target: thioredoxin-polyglutamine fusion protein with 62 glutamines (Homo sapiens (Human), UniProt Q156A1 2-63)
# Test: cell-based or functional assay
# Sequence of thioredoxin-polyglutamine fusion protein with 62 glutamines (Q156A1 2-63): as the sequence (Q156A1 2-63) above
row,Binder,inhibition of thio-Q62 aggregation in vitro (turbidity at 405 nm)
1,B7,3 molar ratio thio-Q62:QBP1 (3:1) for complete inhibition

# Biological target: thioredoxin-polyglutamine fusion protein with 81 glutamines (Dictyostelium discoideum (Social amoeba), UniProt Q54DK4 734-1290)
# Test: cell-based or functional assay
# Sequence of thioredoxin-polyglutamine fusion protein with 81 glutamines (Q54DK4 other isoform, or with tags, fused parts or gaps): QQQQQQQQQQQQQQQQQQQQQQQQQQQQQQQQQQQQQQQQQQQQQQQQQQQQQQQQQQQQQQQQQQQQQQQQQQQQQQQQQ
row,Binder,inhibition of thio-Q81 aggregation in vitro (turbidity at 405 nm)
1,B7,10 fold molar excess of QBP1 over thio-Q81
